Entries after “also recorded” stand apart in the source; their conditions may differ.
Test system: human mammary epithelial cells
Assay: Human mammary organoids stained for K8/K14, confocal microscopy
Format: cell-based
Settings: Day 17 organoids; 50 ng/mL NRG3, 100 ng/mL AMH, 50 ng/mL GM-CSF
Description: Organoids were recovered from Matrigel by incubating in Corning Cell Recovery Solution for 1 hour with rocking on ice. Organoids were then fixed in 4% paraformaldehyde (PFA) at room temperature for 1 hour and stored in PBS at 4° C. After PFA fixation, antigen retrieval was performed by boiling the organoids in sodium citrate buffer for 20 minutes at 96° C. Organoids were permeabilized in a 0.5% Triton-X-100 solution in PBS overnight at room temperature. Samples were blocked by incubating overnight in a solution of 5% goat serum.
Following fixation and permeabilization, the organoids were incubated sequentially in primary antibody and secondary antibody solutions (as summarized in the table below) overnight at room temperature. Samples were counterstained in a 2 μg/ml DAPI solution for 20 minutes and dehydrated through stepwise incubations in solutions with increasing methanol concentrations (50%, 80%, then 100% methanol). Organoids were embedded in a solution of 2:1 Benzyl Benzoate-Benzyl alcohol (BABB), transferred to Ibidi glass bottom chamber slides and imaged using a Leica SP8 confocal laser scanning microscope. […]
The effects of modulating signaling through BMP were analyzed across multiple experiments in terms of total cell count among formed organoids (FIG. 9A) and the lineage balance of the cells among formed organoids (FIG. 9B). […]

B1: anti mullerian hormone (protein, UniProt P03971 452-560, looked up)
Muellerian-inhibiting factor: SAGATAADGPCALRELSVDLRAERSVLIPETYQANNCQGVCGWPQSDRNPRYGNHVVLLLKMQVRGAALARPPCCVPTAYAGKLLISLSEERISAHHVPNMVATECGCR
- lineage restriction of organoids formed (K8/K14 staining): bias the culture of mammary epithelial cells to form luminal-restricted organoids; also recorded: Luminal-restricted organoids were formed
